Experimental data reported in the supplement of paper PMC10126150.
± gives the standard deviation of the averaged measurements.

The sequences below were run on ATP (assay: switch fluorescence ratio, 500 uM ATP over buffer (Cy3 cluster intensity, sum of 5 cycles each) (fold (ratio)); higher = stronger signal-on switching upon ATP binding; sequences stand for … in TCGTCGGCAGCGTCAGATGTGTATAAGAGACAGTTTTTTTTTTTTTTTTTTTTTTTTT…TC). Settings: aptamer strand: ATP DNA aptamer (quencher-CACCTGGGGGAGTATTGCGGAGGAAGG + anchor), 100 nM annealed; ATP concentration: 500 uM.
How it was run: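 After annealing to 100 nM quencher-labelled ATP aptamer, Cy3-labelled switching-strand clusters on a modified Illumina MiSeq flow-cell were imaged in selection buffer. A second image followed after 15 min with 500 uM ATP at 22 °C, and five such buffer/ATP cycles were done, each separated by NaOH stripping and re-annealing. The fluorescence ratio, averaged per switch-domain sequence, is summed target-cycle over summed buffer-cycle Cy3 intensity per cluster, with clusters outside 100-1000 RFU excluded.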
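Note: ATP exposure 15 min at 22 °C before imaging.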

In order of rising switch fluorescence ratio:
1. TGCTGCTTTT  0.943 ± 0.036
2. TGGTTGTTGG  0.95 ± 0.02
3. AGTTTGGGC  0.9604 ± 0.0015
4. GGGGGCTGCT  0.962 ± 0.029
5. TATTGGTCAA  0.962 ± 0.017
6. ATAAGATTGT  0.963 ± 0.058
7. TGGGTTTCTA  0.964 ± 0.021
8. GAGGCTCATT  0.964 ± 0.035
9. TCATTTATGT  0.9665 ± 0.0014
10. ATTATGTCTG  0.966 ± 0.071
11. GTAATGGGGT  0.966 ± 0.029
12. TGTGATTGTG  0.967 ± 0.015
13. CTGGTCTATT  0.968 ± 0.017
14. TTCTTGGAAT  0.969 ± 0.049
15. GCTAGATCGT  0.969 ± 0.033
16. AGGTAGAAGA  0.97 ± 0.013
17. TAGGCCTAAT  0.9715 ± 0.003
18. GTCGTCGTCG  0.972 ± 0.012
19. TGGAAGGGAG  0.9738 ± 0.0083
20. ATATAGACGG  0.975 ± 0.024
21. GTGAGGGTTG  0.975 ± 0.03
22. AAATGTGTGG  0.977 ± 0.019
23. CTTAGATGGA  0.978 ± 0.023
24. GTTTTCAAGT  0.979 ± 0.039
25. GCGGTAGCAG  0.979 ± 0.024
26. TAGAGGAAGG  0.979 ± 0.021
27. TATAGGGGCT  0.9805 ± 0.0098
28. TGGAGAGGGA  0.9805 ± 0.0078
29. GGTTATCTTT  0.982 ± 0.047
30. TACATTGGCT  0.982 ± 0.019
31. GGGGTTTGGT  0.984 ± 0.038
32. CTGAGGCCCG  0.984 ± 0.05
33. TGATTCGGGT  0.984 ± 0.029
34. GAGAGTTTTC  0.985 ± 0.037
35. TGGTTATGGG  0.985 ± 0.022
36. TCATGCTTGT  0.985 ± 0.035
37. TGGGAATGGG  0.986 ± 0.011
38. AAGTGGGGA  0.986 ± 0.018
39. TAAAAAGCGA  0.987 ± 0.012
40. ATACTATGGT  0.989 ± 0.038
41. ATTTCGGTCT  0.9892 ± 0.0049
42. ACTTGGTCGA  0.9902 ± 0.0095
43. AAGGTGGGGG  0.991 ± 0.033
44. ATGTATAGGA  0.992 ± 0.029
45. AAGGAGGGAG  0.992 ± 0.026
46. ATCCCTTGAG  0.992 ± 0.032
47. AAGATGTTAG  0.9926 ± 0.0062
48. AGTTCGCTTT  0.993 ± 0.028
49. GGGGTTGGGG  0.994 ± 0.031
50. TTGGTGATGT  0.994 ± 0.044
51. AATAACAAAA  0.995 ± 0.037
52. GCGGTCGGGC  0.9952 ± 0.0076
53. GGATGGGGCC  0.995 ± 0.032
54. TTGAAAGGGG  0.996 ± 0.083
55. TTGAAGGCTT  0.997 ± 0.013
56. TTTTTACTGC  0.997 ± 0.029
57. CATTAATGTA  0.9977 ± 0.0033
58. GGGTCGATTT  0.999 ± 0.01
59. GAAGTGTTGG  1.004 ± 0.0049
60. TGTCAAAAAG  1 ± 0.017
61. GTTGTATAGA  1 ± 0.019
62. GTCACCAGAT  1.002 ± 0.0077
63. TTTTTGTTGG  1 ± 0.034
64. ATTGAGCGGG  1 ± 0.034
65. GGTTTAGTGG  1 ± 0.031
66. GTAAAAGGCG  1 ± 0.024
67. TTTGCTTTAA  1 ± 0.067
68. GTTATGACTC  1 ± 0.076
69. ACATAGTGCT  1.004 ± 0.0077
70. CGGGTACTTT  1 ± 0.059
71. GGGGTGGGGA  1 ± 0.036
72. TGTTAGGGG  1 ± 0.049
73. AGTTTTGGAG  1 ± 0.015
74. TTTCTAGGTT  1 ± 0.041
75. TAAGGGTTTT  1 ± 0.036
76. TTTCGTATGG  1 ± 0.057
77. TGTTTCGTTT  1 ± 0.055
78. TCGGAAATTT  1.002 ± 0.0079
79. CGCCGGGGAT  1.004 ± 0.002
80. TTTCGACTTT  1 ± 0.038
81. GTGTTCTGGA  1.002 ± 0.006
82. ATGGAAGGAT  1.005 ± 0.0065
83. CCAATTTTTA  1.01 ± 0.03
84. GTTTGGACAG  1.007 ± 0.01
85. GCCACGGGGA  1.0073 ± 0.00078
86. TTAAGCTTAT  1.012 ± 0.006
87. TTTCGTGTTG  1.01 ± 0.017
88. GCTATTGGGA  1.01 ± 0.022
89. GCCGGCTTTC  1.01 ± 0.048
90. CAAAGAGTGG  1.0063 ± 0.00092
91. CGGCCGTACG  1.01 ± 0.019
92. TTATGTTAAA  1.01 ± 0.022
93. AGGGCAAAAT  1.02 ± 0.035
94. GCGGAAAAAC  1.02 ± 0.058
95. CGTATAGGAG  1.02 ± 0.045
96. TATGGTGTGC  1.02 ± 0.021
97. GATAGAGTAG  1.016 ± 0.0019
98. TGGTGGAGTC  1.02 ± 0.046
99. ACTATTATCT  1.023 ± 0.0099
100. CCGTTGTGCG  1.02 ± 0.027
101. TCTATTGGCT  1.016 ± 0.0049
102. TGGTATGCGT  1.02 ± 0.024
103. GTATGAGGTG  1.02 ± 0.044
104. AATTTATCCG  1.02 ± 0.059
105. TGAGAGGTCT  1.017 ± 0.0097
106. CAGAGGCCCG  1.02 ± 0.032
107. TTGAGTTAC  1.03 ± 0.06
108. AACGTTAATT  1.025 ± 0.0081
109. CGTTGGACGG  1.03 ± 0.026
110. TTTTGCTATT  1.03 ± 0.013
111. TATGGTCGCT  1.03 ± 0.041
112. GATGTCGTGC  1.03 ± 0.031
113. TGCGCCCGGG  1.033 ± 0.0076
114. AAAGGCATGT  1.04 ± 0.017
115. TTTACTTAGC  1.04 ± 0.026
116. TGGAGGGCTT  1.04 ± 0.021
117. AGATCTGGGG  1.04 ± 0.036
118. AGGGGATTTT  1.04 ± 0.056
119. TCTATGCATG  1.04 ± 0.029
120. AGGTTTGCAA  1.04 ± 0.028
121. AATGGTAAAC  1.04 ± 0.018
122. ACGGTCGGCT  1.04 ± 0.048
123. TACCGCGGTT  1.04 ± 0.03
124. TTTTTAATCC  1.05 ± 0.017
125. CTGGGAGAGC  1.05 ± 0.053
126. TACATGTCCG  1.05 ± 0.064
127. GATTGTGACG  1.06 ± 0.057
128. TTGTCCGTAG  1.0583 ± 0.00024
129. TTTGTAAGCC  1.06 ± 0.011
130. CAGGCAAGCT  1.061 ± 0.0071
131. CACTTGGGTG  1.064 ± 0.0066
132. CGGGAAATAG  1.06 ± 0.02
133. ACAGGGGGTG  1.07 ± 0.035
134. CACCGAGATT  1.07 ± 0.076
135. CGATCCGGCG  1.08 ± 0.16
136. ACTGGAGGGC  1.08 ± 0.1
137. TTTCTGAGCT  1.08 ± 0.068
138. TGCAGGAATT  1.09 ± 0.17
139. ACTTAGACAC  1.095 ± 0.0089
140. AACCCGTTTC  1.09 ± 0.07
141. ACCAAAAATG  1.1 ± 0.13
142. TTTTGCCAGT  1.11 ± 0.23
143. AAAGCTATTC  1.12 ± 0.16
144. TATGAAAGGG  1.13 ± 0.16
145. TACTCGCCAT  1.13 ± 0.035
146. ACGCCAGCTA  1.137 ± 0.004
147. CCGCTGTTTT  1.16 ± 0.23
148. CACTCTGCTG  1.19 ± 0.012
149. CAATTCGCTA  1.21 ± 0.089
150. TTACGTAAGG  1.23 ± 0.051
151. CTTTGGAGTG  1.23 ± 0.38
152. AGCACTTACA  1.35 ± 0.085
153. CCTGAGTTCG  1.39 ± 0.21
154. CTCCGTGGGG  1.47 ± 0.042
155. TTTGCCAAAC  1.52 ± 0.55
156. CCGAGAAGAG  1.58 ± 0.021
157. TGCAACCTCC  2.29 ± 1.1
